Paper PMC9482650, “Quantitative fragmentomics allow affinity mapping of interactomes” (Nature Communications, 2022)

T1: APBA3_2, O96018
T1 sequence (O96018 480-570, limits assumed, looked up): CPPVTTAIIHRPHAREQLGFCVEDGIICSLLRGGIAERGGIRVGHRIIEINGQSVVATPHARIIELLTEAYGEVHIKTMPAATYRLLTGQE

T2: NHERF3_2, Q5T2W1
T2 sequence (Q5T2W1 129-225, limits assumed, looked up): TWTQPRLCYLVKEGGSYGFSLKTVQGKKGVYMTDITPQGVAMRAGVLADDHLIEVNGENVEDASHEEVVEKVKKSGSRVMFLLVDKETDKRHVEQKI

T3: PARD6G, Q9BYG4
T3 sequence (Q9BYG4 153-261, limits assumed, looked up): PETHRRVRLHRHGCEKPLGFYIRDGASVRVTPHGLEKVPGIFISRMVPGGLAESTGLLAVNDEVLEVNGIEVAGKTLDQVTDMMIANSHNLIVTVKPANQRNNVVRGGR

T4: PDZD11, Q5EBL8
T4 sequence (Q5EBL8 42-139, limits assumed, looked up): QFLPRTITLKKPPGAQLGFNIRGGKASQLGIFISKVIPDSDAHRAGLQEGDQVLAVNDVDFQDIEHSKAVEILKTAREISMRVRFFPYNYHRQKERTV

T5: PDZD2_1, O15018
T5 sequence (O15018 80-192, limits assumed, looked up): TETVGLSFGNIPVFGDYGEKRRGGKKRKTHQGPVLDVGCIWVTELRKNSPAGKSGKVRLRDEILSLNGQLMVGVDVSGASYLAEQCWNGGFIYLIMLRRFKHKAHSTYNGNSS

T6: PDZD2_5, O15018
T6 sequence (O15018 2617-2716, limits assumed, looked up): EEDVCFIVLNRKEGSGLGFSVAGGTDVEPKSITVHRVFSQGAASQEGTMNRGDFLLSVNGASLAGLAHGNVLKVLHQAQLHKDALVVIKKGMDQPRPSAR

T7: PDZD7_1, Q9H5P4
T7 sequence (Q9H5P4 81-178, limits assumed, looked up): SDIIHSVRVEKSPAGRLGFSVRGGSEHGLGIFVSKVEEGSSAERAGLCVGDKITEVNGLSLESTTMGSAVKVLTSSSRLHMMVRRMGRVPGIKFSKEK

T8: PDZD7_2, Q9H5P4
T8 sequence (Q9H5P4 205-303, limits assumed, looked up): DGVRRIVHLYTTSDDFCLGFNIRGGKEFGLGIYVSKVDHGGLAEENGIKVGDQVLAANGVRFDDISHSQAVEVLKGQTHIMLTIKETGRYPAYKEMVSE

T9: PREX2_2, Q70Z35
T9 sequence (Q70Z35 672-764, limits assumed, looked up): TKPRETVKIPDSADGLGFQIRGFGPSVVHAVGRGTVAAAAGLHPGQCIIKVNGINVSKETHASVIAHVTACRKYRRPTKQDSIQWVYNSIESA

T10: SHROOM2, Q13796
T10 sequence (Q13796 21-118, limits assumed, looked up): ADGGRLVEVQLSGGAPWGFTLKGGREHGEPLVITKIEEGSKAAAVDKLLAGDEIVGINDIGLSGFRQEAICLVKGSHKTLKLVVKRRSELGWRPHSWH

T11: SIPA1L3, O60292
T11 sequence (O60292 961-1052, limits assumed, looked up): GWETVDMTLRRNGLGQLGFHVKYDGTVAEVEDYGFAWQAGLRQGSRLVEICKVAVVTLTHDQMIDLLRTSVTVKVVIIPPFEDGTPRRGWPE

T12: TJP3_2, O95049
T12 sequence (O95049 190-282, limits assumed, looked up): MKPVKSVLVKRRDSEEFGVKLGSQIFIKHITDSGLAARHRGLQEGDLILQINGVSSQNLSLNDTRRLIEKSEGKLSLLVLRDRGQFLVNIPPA


Legend:
Test in all cases: holdup assay
Design in all cases: key: below the threshold = too weak to quantify, mostly under pKd 3.1 to 4
Conditions in all cases: plain residues with an end cap or a label only (N-terminal biotin on a linker: ttds)
AHNAK2, Q8IVF2 = molecular target: AHNAK2, Q8IVF2
APBA3_2, O96018 = molecular target: T1, APBA3_2, O96018
CARD14, Q9BXL6 = molecular target: CARD14, Q9BXL6
DLG2_1, Q15700 = molecular target: DLG2_1, Q15700
Inadl_7, Q8NI35 = molecular target: Inadl_7, Q8NI35
LMO7, Q8WWI1 = molecular target: LMO7, Q8WWI1
MAGI1_5, Q96QZ7 = molecular target: MAGI1_5, Q96QZ7
MAGI3_3, Q5TCQ9 = molecular target: MAGI3_3, Q5TCQ9
MAGI3_6, Q5TCQ9 = molecular target: MAGI3_6, Q5TCQ9
NHERF2_1, Q15599 = molecular target: NHERF2_1, Q15599
NHERF3_2, Q5T2W1 = molecular target: T2, NHERF3_2, Q5T2W1
PARD3B_2, Q8TEW8 = molecular target: PARD3B_2, Q8TEW8
PARD3_1, Q8TEW0 = molecular target: PARD3_1, Q8TEW0
PARD6G, Q9BYG4 = molecular target: T3, PARD6G, Q9BYG4
PDZD11, Q5EBL8 = molecular target: T4, PDZD11, Q5EBL8
PDZD2_1, O15018 = molecular target: T5, PDZD2_1, O15018
PDZD2_5, O15018 = molecular target: T6, PDZD2_5, O15018
PDZD7_1, Q9H5P4 = molecular target: T7, PDZD7_1, Q9H5P4
PDZD7_2, Q9H5P4 = molecular target: T8, PDZD7_2, Q9H5P4
PDZRN4_2, Q6ZMN7 = molecular target: PDZRN4_2, Q6ZMN7
PREX2_2, Q70Z35 = molecular target: T9, PREX2_2, Q70Z35
PTPN13_2, Q12923 = molecular target: PTPN13_2, Q12923
SCRIB_4, Q14160 = molecular target: SCRIB_4, Q14160
SHROOM2, Q13796 = molecular target: T10, SHROOM2, Q13796
SIPA1L3, O60292 = molecular target: T11, SIPA1L3, O60292
TJP3_2, O95049 = molecular target: T12, TJP3_2, O95049

Chain of NHERF2_1, Q15599 (Q15599 9-91): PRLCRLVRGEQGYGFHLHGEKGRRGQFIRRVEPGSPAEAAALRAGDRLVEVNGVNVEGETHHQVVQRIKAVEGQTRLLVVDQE
Chain of SCRIB_4, Q14160 (Q14160 1095-1204): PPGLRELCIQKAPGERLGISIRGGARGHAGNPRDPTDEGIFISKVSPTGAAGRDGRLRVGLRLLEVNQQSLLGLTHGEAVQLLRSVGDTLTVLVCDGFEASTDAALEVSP
Chain of MAGI3_6, Q5TCQ9 (Q5TCQ9 1014-1103): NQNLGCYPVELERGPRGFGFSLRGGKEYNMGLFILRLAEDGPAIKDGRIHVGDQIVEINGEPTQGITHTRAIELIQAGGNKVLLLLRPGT
Chain of LMO7, Q8WWI1 (Q8WWI1 1037-1138): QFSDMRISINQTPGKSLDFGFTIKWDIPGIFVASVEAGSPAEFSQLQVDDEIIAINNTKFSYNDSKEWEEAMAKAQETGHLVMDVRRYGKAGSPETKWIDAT
Chain of MAGI1_5, Q96QZ7 (Q96QZ7 986-1098): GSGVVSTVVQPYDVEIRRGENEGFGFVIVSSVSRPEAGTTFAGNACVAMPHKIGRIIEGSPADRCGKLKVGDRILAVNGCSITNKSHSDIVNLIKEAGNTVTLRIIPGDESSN
Chain of MAGI3_3, Q5TCQ9 (Q5TCQ9 572-655): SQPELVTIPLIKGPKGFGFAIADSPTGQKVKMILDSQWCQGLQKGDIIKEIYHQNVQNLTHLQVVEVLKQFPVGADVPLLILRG
Chain of PDZRN4_2, Q6ZMN7 (Q6ZMN7 389-498): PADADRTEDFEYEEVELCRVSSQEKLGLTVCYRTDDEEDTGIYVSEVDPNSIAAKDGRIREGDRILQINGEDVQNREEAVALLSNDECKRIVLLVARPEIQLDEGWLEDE
Chain of AHNAK2, Q8IVF2 (Q8IVF2 108-193): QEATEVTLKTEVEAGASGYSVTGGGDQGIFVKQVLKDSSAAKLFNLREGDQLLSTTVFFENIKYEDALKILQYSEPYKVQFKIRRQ
Chain of PARD3_1, Q8TEW0 (Q8TEW0 264-372): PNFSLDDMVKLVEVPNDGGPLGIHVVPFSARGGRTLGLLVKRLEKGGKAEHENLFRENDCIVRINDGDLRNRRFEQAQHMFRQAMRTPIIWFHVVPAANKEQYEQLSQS
Chain of CARD14, Q9BXL6 (Q9BXL6 558-663): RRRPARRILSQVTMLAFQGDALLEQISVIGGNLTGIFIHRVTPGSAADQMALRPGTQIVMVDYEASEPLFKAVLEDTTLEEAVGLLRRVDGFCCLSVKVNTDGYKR
Chain of PARD3B_2, Q8TEW8 (Q8TEW8 376-471): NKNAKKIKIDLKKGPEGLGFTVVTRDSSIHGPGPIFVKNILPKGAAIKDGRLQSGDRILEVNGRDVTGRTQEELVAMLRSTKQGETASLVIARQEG
Chain of PTPN13_2, Q12923 (Q12923 1363-1462): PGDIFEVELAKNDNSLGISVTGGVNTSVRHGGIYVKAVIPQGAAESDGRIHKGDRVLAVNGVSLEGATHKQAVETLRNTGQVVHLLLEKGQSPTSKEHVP
Chain of Inadl_7, Q8NI35 (Q8NI35 1219-1332): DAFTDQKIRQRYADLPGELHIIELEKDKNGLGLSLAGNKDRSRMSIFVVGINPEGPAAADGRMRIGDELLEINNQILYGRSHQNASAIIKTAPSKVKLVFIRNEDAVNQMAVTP

| Binder | pKd (AHNAK2, Q8IVF2) | pKd (APBA3_2, O96018) | pKd (CARD14, Q9BXL6) | pKd (DLG2_1, Q15700) | pKd (Inadl_7, Q8NI35) | pKd (LMO7, Q8WWI1) | pKd (MAGI1_5, Q96QZ7) | pKd (MAGI3_3, Q5TCQ9) | pKd (MAGI3_6, Q5TCQ9) | pKd (NHERF2_1, Q15599) | pKd (NHERF3_2, Q5T2W1) | pKd (PARD3B_2, Q8TEW8) | pKd (PARD3_1, Q8TEW0) | pKd (PARD6G, Q9BYG4) | pKd (PDZD11, Q5EBL8) | pKd (PDZD2_1, O15018) | pKd (PDZD2_5, O15018) | pKd (PDZD7_1, Q9H5P4) | pKd (PDZD7_2, Q9H5P4) | pKd (PDZRN4_2, Q6ZMN7) | further results |
| --- | --- | --- | --- | --- | --- | --- | --- | --- | --- | --- | --- | --- | --- | --- | --- | --- | --- | --- | --- | --- | --- |
| HIVEALETDV [PBK, Q96KB5] | below the threshold | below the threshold | below the threshold | 4.74 | 4.4 | below the threshold | below the threshold | 4.33 | 4.62 | below the threshold | below the threshold | below the threshold | below the threshold | below the threshold | below the threshold | below the threshold | below the threshold | below the threshold | below the threshold | below the threshold | pKd (PREX2_2, Q70Z35): below the threshold; pKd (PTPN13_2, Q12923): below the threshold; pKd (SCRIB_4, Q14160): below the threshold; pKd (SHROOM2, Q13796): below the threshold; pKd (SIPA1L3, O60292): below the threshold; pKd (TJP3_2, O95049): below the threshold |
| NYWPGKETQL [SLCO1C1, Q9NYB5] | 4.41 | below the threshold | below the threshold | below the threshold | below the threshold | below the threshold | 4.47 | below the threshold | 4.36 | below the threshold | below the threshold | below the threshold | below the threshold | below the threshold | below the threshold | below the threshold | below the threshold | below the threshold | below the threshold | below the threshold | pKd (PREX2_2, Q70Z35): below the threshold; pKd (PTPN13_2, Q12923): below the threshold; pKd (SCRIB_4, Q14160): 4.83; pKd (SHROOM2, Q13796): 4.98; pKd (SIPA1L3, O60292): below the threshold; pKd (TJP3_2, O95049): below the threshold |
| SEKHFRETEV [HTLV1-TAX1, P03409] | below the threshold | below the threshold | below the threshold | 5.16 | below the threshold | below the threshold | 5.22 | 4.36 | 4.54 | 3.95 | below the threshold | 3.97 | below the threshold | 3.93 | below the threshold | below the threshold | 4.16 | 3.85 | 4.05 | below the threshold | pKd (PREX2_2, Q70Z35): below the threshold; pKd (PTPN13_2, Q12923): below the threshold; pKd (SCRIB_4, Q14160): 4.43; pKd (SHROOM2, Q13796): below the threshold; pKd (SIPA1L3, O60292): below the threshold; pKd (TJP3_2, O95049): below the threshold |
| IQREDQETAV [DGKZ, Q13574] | below the threshold | 4.74 | below the threshold | 4.71 | below the threshold | below the threshold | 5.06 | below the threshold | below the threshold | below the threshold | below the threshold | below the threshold | below the threshold | below the threshold | below the threshold | below the threshold | below the threshold | below the threshold | below the threshold | below the threshold | pKd (PREX2_2, Q70Z35): below the threshold; pKd (PTPN13_2, Q12923): below the threshold; pKd (SCRIB_4, Q14160): 4.4; pKd (SHROOM2, Q13796): below the threshold; pKd (SIPA1L3, O60292): below the threshold; pKd (TJP3_2, O95049): below the threshold |
| MERLRVETDV [ARHGEF16, Q5VV41] | below the threshold | below the threshold | below the threshold | 4.1 | below the threshold | below the threshold | below the threshold | below the threshold | below the threshold | below the threshold | below the threshold | below the threshold | below the threshold | below the threshold | below the threshold | below the threshold | below the threshold | below the threshold | 4.24 | below the threshold | pKd (PREX2_2, Q70Z35): 4.17; pKd (PTPN13_2, Q12923): below the threshold; pKd (SCRIB_4, Q14160): below the threshold; pKd (SHROOM2, Q13796): below the threshold; pKd (SIPA1L3, O60292): below the threshold; pKd (TJP3_2, O95049): below the threshold |
